Where “and” joins values, the source holds several entries; their conditions need not be identical. Equal values may be shown once.
Legend:
cryo-EM structure = target: the molecule itself; assay: cryo-EM structure
[1] = target: the molecule itself; assay: cryo-EM 2D classification

B1: full-length mature human contactin-2 (CNTN2), residues 29-1012, wild type (natural protein, UniProt Q02246 29-1012, looked up)
chain: LGSQTTFGPVFEDQPLSVLFPEESTEEQVLLACRARASPPATYRWKMNGTEMKLEPGSRHQLVGGNLVIMNPTKAQDAGVYQCLASNPVGTVVSREAILRFGFLQEFSKEERDPVKAHEGWGVMLPCNPPAHYPGLSYRWLLNEFPNFIPTDGRHFVSQTTGNLYIARTNASDLGNYSCLATSHMDFSTKSVFSKFAQLNLAAEDTRLFAPSIKARFPAETYALVGQQVTLECFAFGNPVPRIKWRKVDGSLSPQWTTAEPTLQIPSVSFEDEGTYECEAENSKGRDTVQGRIIVQAQPEWLKVISDTEADIGSNLRWGCAAAGKPRPTVRWLRNGEPLASQNRVEVLAGDLRFSKLSLEDSGMYQCVAENKHGTIYASAELAVQALAPDFRLNPVRRLIPAARGGEILIPCQPRAAPKAVVLWSKGTEILVNSSRVTVTPDGTLIIRNISRSDEGKYTCFAENFMGKANSTGILSVRDATKITLAPSSADINLGDNLTLQCHASHDPTMDLTFTWTLDDFPIDFDKPGGHYRRTNVKETIGDLTILNAQLRHGGKYTCMAQTVVDSASKEATVLVRGPPGPPGGVVVRDIGDTTIQLSWSRGFDNHSPIAKYTLQARTPPAGKWKQVRTNPANIEGNAETAQVLGLTPWMDYEFRVIASNILGTGEPSGPSSKIRTREAAPSVAPSGLSGGGGAPGELIVNWTPMSREYQNGDGFGYLLSFRRQGSTHWQTARVPGADAQYFVYSNESVRPYTPFEVKIRSYNRRGDGPESLTALVYSAEEEPRVAPTKVWAKGVSSSEMNVTWEPVQQDMNGILLGYEIRYWKAGDKEAAADRVRTAGLDTSARVSGLHPNTKYHVTVRAYNRAGTGPASPSANATTMKPPPRRPPGNISWTFSSSSLSIKWDPVVPFRNESAVTGYKMLYQNDLHLTPTLHLTGKNWIEIPVPEDIGHALVQIRTTGPGGDGIPAEVHIVRNGGTSMMVEN
modifications: N-linked glycans at Asn76, Asn198, Asn461, Asn477, Asn498, Asn525 (densities in the cryo-EM map)
stoichiometry N (cryo-EM structure): 2 | stoichiometry N [1]: 4 and 6
